Results published in the supplement of paper PMC12764529.
± gives the half width of the 95% confidence interval.

What was measured:
[1] = folding stability dG unfold from trypsin proteolysis; higher = more stable
Description: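 Folding stability of de novo designed mini-proteins (<80 aa, no Cys; designed by TrROS, TrMRF, ProteinMPNN and the joint model) was measured by cDNA display proteolysis with trypsin and chymotrypsin. Each protease was used at 11 concentrations in a threefold dilution series plus a no-protease condition. K50 was inferred by Bayesian fitting of sequencing counts, and dG unfold was derived against a sequence-predicted unfolded-state K50 (Tsuboyama et al. method). Sequences shown include variable-length N-terminal GS-type padding (SAGGSAGG...) inside a display construct carrying a PA tag. Rows were kept only if the AF2 dimer inter-PAE was >15, to exclude likely homo-oligomers.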

[2] = folding stability dG unfold (combined trypsin and chymotrypsin); higher = more stable
In short: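 How resistant each design was to proteolysis was captured as K50, inferred by Bayesian fitting of sequencing counts. Unfolding free energy was then derived relative to a sequence-predicted unfolded-state K50 and a shared folded-state K50, per protease or combined. Digestion used trypsin and chymotrypsin at 11 threefold-diluted concentrations plus a no-protease condition, on mini-proteins under 80 residues without cysteine in a PA-tagged cDNA display construct. Designs were kept only when AlphaFold2 dimer inter-PAE was above 15.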

Sequence	folding stability dG unfold [1] [kcal/mol]	folding stability dG unfold [2] [kcal/mol]
SAGGSAGGSAGKSPSESEVVITPETGVVEENGVKIKVTLTITTYSPSSTVTSTTKDPKLLSAGGSAGGSAGG [r11_551_JUSTAS]	-0.0836 ± 0.045	-0.356 ± 0.15
SAGGSAGGSAGLNITYTTTITYPDGTVVTEPVVSSGSLEEAIARARELEKKHPNVEVEVSPEGSAGGSAGGS [r12_268_JUSTAS]	0.396 ± 0.079	-0.113 ± 0.23
SAGGSAGGSAGMELAEEVARKGKPGTLVTFTPPGGRVQLATVRGDEVTPSGLSPDYSVTLTSAGGSAGGSAG [r3_244_JUSTAS]	-0.371 ± 0.26	< -1
SAGGSAGGSAGMIVIETPLSEYEKLKSPDIEVLEKSEGKVVIEIKVPPEPFYDEEGKPLKSAGGSAGGSAGG [r11_828_JUSTAS]	0.804 ± 0.034	0.286 ± 0.13
SAGGSAGGSAGMKIIVKSKEEAEKIAKEIAKKLGIEKKIKKIEIIVIPYKKTKDGKIEKISAGGSAGGSAGG [r17_237_TrROS_Hall]	0.36 ± 0.19	-0.184 ± 0.61
SAGGSAGGSAGMPPGSIKVTVTSTAPDGTPSTTESTIPPSQVDKVKAEAAAKGWTVSFTGSAGGSAGGSAGG [r11_603_JUSTAS]	0.654 ± 0.034	0.245 ± 0.068
SAGGSAGGSAGMPPNTVVLRESLEPGRVVLTLAVVTPGSVASVEVTEEFPVVPGTGVVVGSAGGSAGGSAGG [r11_66_JUSTAS]	0.706 ± 0.038	0.139 ± 0.13
SAGGSAGGSAGMTISLSDLTKKGDIEKAKEEVEEIKKKNPEPKVEKVSVPPEKNEIYKLESAGGSAGGSAGG [r11_365_JUSTAS]	-0.308 ± 0.22	< -1
SAGGSAGGSAGMTLEEIEELLKKEGIDPSTLGNEKIAEIIKKKNPNTTITSSPEGTGYISKSAGGSAGGSAG [r3_375_JUSTAS]	0.27 ± 0.18	< -1
SAGGSAGGSAGMVFPVDGKEVVIDRGADDALRVTVFGPDGSASEAVFPGKDIPTVLKALSSAGGSAGGSAGG [r11_934_TrMRF]	-0.23 ± 0.24	< -1
SAGGSAGGSAGPEIRVDDLEDGVVRITTVNVDPSTGAPVATTTTTLPRESLSPEVVALLSSAGGSAGGSAGG [r11_376_JUSTAS]	0.046 ± 0.038	< -1
SAGGSAGGSAGPEIVLEGKPVELEVVEVGDKPVLIARFPDHYVVIDPEPDVIRLFSSEELSAGGSAGGSAGG [r11_9_TrMRF]	-0.0154 ± 0.018	-0.449 ± 0.11
SAGGSAGGSAGPKPIRIKVKWRNEKDGEKRKVTIPIPPGMPLEELIKNADPNQVRDVEIVSAGGSAGGSAGG [r11_386_TrROS]	-0.276 ± 0.1	< -1
SAGGSAGGSAGQPKIGVLKEELIKETYTRPVPDSDETVKEERIVVKIIKKKLNIPENLLLSAGGSAGGSAGG [r17_530_JUSTAS]	-0.447 ± 0.27	< -1
SAGGSAGGSAGREEVEEAIRAGETVTLEEKSPEGVIPVITVRAEFPDPDKVLVETEVKPLSAGGSAGGSAGG [r11_710_JUSTAS]	0.455 ± 0.083	-0.646 ± 0.32
SAGGSAGGSAGSLPEKLKEAFPDLGVTVTSVDPSGTVTVEVDGPEEVKEKVEKAVAEILKSAGGSAGGSAGG [r11_418_JUSTAS]	-0.576 ± 0.33	< -1
SAGGSAGGSAGSPIPVEVKVTTFGPGGVPREAELLTGDPAAFEKAIGKPLPDGSKVEVLLSAGGSAGGSAGG [r11_671_JUSTAS]	-0.129 ± 0.083	-0.955 ± 0.48
SAGGSAGGSAGSSLPPDARYTTKVTVKTPFSKTLSLSEYQKLPPSEIKGIEIEKEVVPVESAGGSAGGSAGG [r11_899_JUSTAS]	-0.198 ± 0.44	-0.927 ± 0.92
SAGGSAGGSAGTTTKITEIKELPTDYVELTMKYPDGTTIKKLIPKSIYKDLPVSSTFSGGSAGGSAGGSAGG [r11_943_JUSTAS]	-0.0564 ± 0.14	< -1
SAGGSAGGSAGVIEVPIEELENLPDDVKVVPTENTAVIYNEKNPIVVPKNEPVLIAPSDKSAGGSAGGSAGG [r17_91_TrMRF]	0.937 ± 0.051	< -1
SAGGSAGGSAKKIDVEVDEPVPNGYYRATIRVPGPGKPIEVNVPGPWEDAERKAKELAKELSAGGSAGGSAG [r3_104_TrROS]	-0.964 ± 0.55	< -1

Sequence	folding stability dG unfold [1] [kcal/mol]	folding stability dG unfold [2] [kcal/mol]
SAGGSAGGSAKKTAVIELIDPKDPKPKTITIPFDLKDGKTSLEELKKLVPDYTITSIAVFDDSAGGSAGGSA [r18_494_TrMRF]	-0.182 ± 0.15	< -1
SAGGSAGGSAKPLTVDEILKNLDFPPNMEIEDIEVDQDENEGKPVISIEMYSPGQPYRPTIVSAGGSAGGSA [r18_354_TrROS]	-0.151 ± 0.042	< -1
SAGGSAGGSALSPDDVEPIDEEPFHNPGGNPMNIGIWKNPDDGKPFIRNPGNGNPFPADDLSAGGSAGGSAG [r3_181_TrROS]	-0.498 ± 0.12	< -1
SAGGSAGGSAMKEYVVASRGYDPATGLYSLTIESSEGKKVKNVTFDDPSNPEKAINEAIAKESAGGSAGGSA [r18_479_JUSTAS]	-0.713 ± 0.34	-0.829 ± 0.35
SAGGSAGGSAMTIQINNLPPEKIEEAADDHGIDTQRNEESDSYYIEMPPNDMDEIKEALGWSAGGSAGGSAG [r3_354_TrROS]	0.725 ± 0.052	0.222 ± 0.17
SAGGSAGGSAPIVRLEFGPVIPLPDMSPDELKEKTAELVPEEYREKIKIVSVLDPDNPKEISAGGSAGGSAG [r3_340_TrMRF]	-0.269 ± 0.12	< -1
SAGGSAGGSAPKPKIEPVNNTITIDIPPKENVQIFFPNGKQEEFPVEPGKEIKIPPGMYLYPSAGGSAGGSA [r18_452_TrROS]	-0.356 ± 0.055	< -1
SAGGSAGGSASAPADETLTAELTSPESDERYTVLVTPEGMTAVDEAGRTTPLSPAVLVSVTAPSAGGSAGGS [r20_35_JUSTAS]	0.862 ± 0.034	0.0934 ± 0.075
SAGGSAGGSASIEVEAEPAEIEKVAEEAPEDEEVLVRDPKTGRVYLVKPDEVVLLREVPALLSAGGSAGGSA [r18_246_JUSTAS]	-0.238 ± 0.086	-0.821 ± 0.48
SAGGSAGGSASKYVKVTVRLTPPDGTTRTVEITDPNKTVEEIIASLPSDEPVEVTEVEELPPSAGGSAGGSA [r18_32_JUSTAS]	0.197 ± 0.18	-0.806 ± 0.49
SAGGSAGGSASMTITLPGMSLEEAKAAAEAHPDHPVLLETPEGRLIEITPEGVVTVRPLPESAGGSAGGSAG [r3_269_JUSTAS]	-0.147 ± 0.029	-0.937 ± 0.17
SAGGSAGGSATIKIKVPPGEPYMIRIRWPDGKSHEHNVPPGEEITIPPDNFDGITPIEIQPYSAGGSAGGSA [r18_210_TrROS]	0.288 ± 0.19	0.11 ± 0.56
SAGGSAGGSENNIVIKMKMEMPNQEMKFRFPIPADKLKDALKEGKPIKFPNGMNVRITEIIPVSAGGSAGGS [r12_432_TrROS]	-0.864 ± 0.81	< -1
SAGGSAGGSGMISKTEVERLPDGTVIERKEYPEGGLTTLKIYKVPPDGVPTLVEEKLVPEKLISAGGSAGGS [r12_695_JUSTAS]	-0.612 ± 0.17	-0.69 ± 0.24
SAGGSAGGSGNPDTPTSPVFVVIEKTTTVVPAPNGLYPKRTSVKISIPGGAAAGAEELIAELLSAGGSAGGS [r12_933_JUSTAS]	-0.2 ± 0.13	< -1
SAGGSAGGSKKVVTYESVTLTVLVERTLPDPEGNPVTTTRVVEEPVRVTKVDFDTKVETYVVGSAGGSAGGS [r20_58_JUSTAS]	-0.0343 ± 0.14	-0.623 ± 0.33
SAGGSAGGSMKPEVVEEIIKKAEEEGYEIDSVTVNPETNVPVIHFNWPSPELAEKDPELREAASAGGSAGGS [r12_482_TrMRF]	0.13 ± 0.12	< -1
SAGGSAGGSMPPEELRKKILEDPNVEVLSIEPPGPEVTLITTKYPRETETPTTETVTEKLPVPLSAGGSAGG [r6_154_JUSTAS]	-0.392 ± 0.33	-0.568 ± 0.33
SAGGSAGGSMVYVVKVEIPETGEEYEFLNPEDKETVEREVRELFPDPEVKAEIEEIEVEPELLSAGGSAGGS [r12_92_TrMRF]	-0.175 ± 0.15	< -1
SAGGSAGGSREIKIDDFERHNGYYYITVEIKDPNNGKKRPLEIPYPPNQPNADRFAKDIADELSAGGSAGGS [r12_415_TrROS]	-0.751 ± 0.43	< -1
SAGGSAGGSSMPLTVEELLASVGPDKTATVLVPPGTSIPANITPLGTEPEGGWRTFAIPASLVSAGGSAGGS [r12_356_JUSTAS]	-0.137 ± 0.12	-0.971 ± 0.25
